The source of these data is publication PMC4431682, “Est10: A Novel Alkaline Esterase Isolated from Bovine Rumen Belonging to the New Family XV of Lipolytic Enzymes” (PLoS ONE, 2015).

What all share (assay): purified protein
Assay type in all cases: biochemical, uncultured bacterium
Common to all, as to settings: hydrolysis, conditions of the kinetic assay not stated separately (general pNP assay: 100 mM sodium phosphate pH 8.0, Triton, 40 °C)

Series [1] concerns T1, CC(=O)Oc1ccc([N+](=O)[O-])cc1.
T1 construct: whole 367-residue ORF with its putative signal peptide, N-terminal 6xHis (pET14b), E. coli BL21(DE3) pLysS, Ni-NTA; forward primer codes MIMKKQNFF; GHSQG with Ser189

The subject of series [2] is T2, CCCCCCCCCC(=O)Oc1ccc([N+](=O)[O-])cc1.
T2 construct: whole 367-residue ORF with its putative signal peptide, N-terminal 6xHis (pET14b), E. coli BL21(DE3) pLysS, Ni-NTA; forward primer codes MIMKKQNFF; GHSQG with Ser189

The test system of series [3] is T3, CCCC(=O)Oc1ccc([N+](=O)[O-])cc1.
T3 construct: whole 367-residue ORF with its putative signal peptide, N-terminal 6xHis (pET14b), E. coli BL21(DE3) pLysS, Ni-NTA; forward primer codes MIMKKQNFF; GHSQG with Ser189

For orientation: kcat means the maximal rate divided by the concentration of active sites. What is called kcat/Km is the turnover number divided by the Michaelis constant. As to Est10 (uncultured bacterium), in series [1], the Km was 0.3 (0.1) mM, the kcat amounted to 0.22 s⁻¹ and the catalytic efficiency (kcat/Km) was 800 M⁻¹ s⁻¹. Further, in series [2], the Km is listed as 0.35 (0.06) mM, the kcat is 0.72 s⁻¹ and the kcat/Km was determined as 2100 M⁻¹ s⁻¹. In series [3], the Km is listed as 0.16 (0.02) mM, the turnover number (kcat) came to 3.1 s⁻¹ and the kcat/Km was found to be 19000 M⁻¹ s⁻¹.
